{
  "source": "paper PMC10134273",
  "about": "(Cancer Medicine, 2023)",
  "description": "Secondary endpoints included PK parameters (e.g., maximum observed concentration [C max] and area under the concentration‐time curve [AUC]). Secondary endpoints included objective response rate (ORR), disease control rate (DCR), and duration of response (DOR) as assessed by investigator per RECIST v1.1. Tumor responses were assessed according to RECIST v1.1; computerized tomography scanning or magnetic resonance imaging was performed every 6 weeks in the first 48 weeks, and every 12 weeks thereafter. Secondary endpoints also included safety and tolerability (adverse events [AEs] as defined by the National Cancer Institute‐Common Terminology Criteria for Adverse Events CTCAE v5.0) and exploratory biomarkers (total bile acids, 7‐α‐hydroxy‐4‐cholesten‐3‐one [C4] and circulating FGF19). Safety follow‐up visit was performed within 30 days (±5 days) and 90 days (±7 days) after the last dose of the study treatment.\nAll patients who received at least one dose of the study treatment in the Phase 1 part of the study were included in the safety and efficacy analyses. Dose escalation and MTD assessment were primarily based on DLTs which occurred within the 28‐day observation period. Descriptive statistics were used for demographics, safety, and efficacy data. The number of patients who experienced DLTs (within and outside of the 28‐day DLT assessment period) was tabulated for each dose level. The sample size of patients required for dose escalation were determined based on the ‘3+3’ design and DLTs observed as the trial progressed.",
  "key": {"[1]": {"details": "EVER4010001 40 mg BID group (N=3)"}, "[2]": {"details": "EVER4010001 60 mg BID group (N=3)"}, "[3]": {"details": "EVER4010001 80 mg BID group (N=6)"}, "[4]": {"details": "EVER4010001 100 mg BID group (N=7)"}},
  "note": "“And” between values parts separate entries of the source, which are not always exact repeats. Equal values may be shown once. Read-outs that look alike come from different tables or passages of the source.",
  "data": [
    {"substance": "pembrolizumab: humanized monoclonal immunoglobulin G4 kappa anti-PD-1 antibody [reference compound]", "values": [
      {"measurement": "SAEs related to EVER4010001 or pembrolizumab", "setting": "2 patients with SAEs (40 and 60 mg)", "value": "none"},
      {"measurement": "Any pembrolizumab related TEAEs", "setting": "Any Grade, N=19", "value": "18 (94.7%) n (%) and 18 (94.7) n (%)"},
      {"measurement": "pembrolizumab related TEAEs: Abdominal pain", "setting": "Any Grade, N=19", "value": "2 (10.5) n (%)"},
      {"measurement": "pembrolizumab related TEAEs: Anemia", "setting": "Any Grade, N=19", "value": "4 (21.1) n (%)"},
      {"measurement": "pembrolizumab related TEAEs: Aspartate aminotransferase increase", "setting": "Any Grade, N=19", "value": "10 [52.6%] n (%) and 10 (52.6) n (%)"},
      {"measurement": "pembrolizumab related TEAEs: Blood alkaline phosphatase increased", "setting": "Any Grade, N=19", "value": "4 (21.1) n (%)"},
      {"measurement": "pembrolizumab related TEAEs: Blood and lymphatic system disorders", "setting": "Any Grade, N=19", "value": "4 (21.1) n (%)"},
      {"measurement": "pembrolizumab related TEAEs: Blood bilirubin increased", "setting": "Any Grade, N=19", "value": "4 (21.1) n (%)"},
      {"measurement": "pembrolizumab related TEAEs: Diarrhea", "setting": "Any Grade, N=19", "value": "11 [57.9%] n (%) and 11 (57.9) n (%)"},
      {"measurement": "pembrolizumab related TEAEs: Endocrine disorders", "setting": "Any Grade, N=19", "value": "3 (15.8) n (%)"},
      {"measurement": "pembrolizumab related TEAEs: Gamma-glutamyl transferase increased", "setting": "Any Grade, N=19", "value": "2 (10.5) n (%)"},
      {"measurement": "pembrolizumab related TEAEs: Gastrointestinal disorders", "setting": "Any Grade, N=19", "value": "11 (57.9) n (%)"},
      {"measurement": "pembrolizumab related TEAEs: Hyperphosphatemia", "setting": "Any Grade, N=19", "value": "3 (15.8) n (%)"},
      {"measurement": "pembrolizumab related TEAEs: Hypoalbuminemia", "setting": "Any Grade, N=19", "value": "3 (15.8) n (%)"},
      {"measurement": "pembrolizumab related TEAEs: Hypothyroidism", "setting": "Any Grade, N=19", "value": "3 (15.8) n (%)"},
      {"measurement": "pembrolizumab related TEAEs: Investigations", "setting": "Any Grade, N=19", "value": "14 (73.7) n (%)"},
      {"measurement": "pembrolizumab related TEAEs: Metabolism and nutrition disorders", "setting": "Any Grade, N=19", "value": "6 (31.6) n (%)"},
      {"measurement": "pembrolizumab related TEAEs: Proteinuria", "setting": "Any Grade, N=19", "value": "4 (21.1) n (%)"},
      {"measurement": "pembrolizumab related TEAEs: Renal and urinary disorder", "setting": "Any Grade, N=19", "value": "4 (21.1) n (%)"},
      {"measurement": "pembrolizumab related TEAEs: Thyroiditis", "setting": "Any Grade, N=19", "value": "2 (10.5) n (%)"},
      {"measurement": "TEAEs resulting in temporary interruption of pembrolizumab", "setting": "[1]", "value": "1 (33.3) n (%)"},
      {"measurement": "Temporary interruption of pembrolizumab: Blood bilirubin increased", "setting": "[1]", "value": "0 n (%)"},
      {"measurement": "Temporary interruption of pembrolizumab: Endocrine disorders", "setting": "[1]", "value": "1 (33.3) n (%)"},
      {"measurement": "Temporary interruption of pembrolizumab: Investigations", "setting": "[1]", "value": "0 n (%)"},
      {"measurement": "Temporary interruption of pembrolizumab: Thyroiditis", "setting": "[1]", "value": "1 (33.3) n (%)"},
      {"measurement": "TEAEs resulting in temporary interruption of pembrolizumab", "setting": "[2]", "value": "0 n (%)"},
      {"measurement": "Temporary interruption of pembrolizumab: Blood bilirubin increased", "setting": "[2]", "value": "0 n (%)"},
      {"measurement": "Temporary interruption of pembrolizumab: Endocrine disorders", "setting": "[2]", "value": "0 n (%)"},
      {"measurement": "Temporary interruption of pembrolizumab: Investigations", "setting": "[2]", "value": "0 n (%)"},
      {"measurement": "Temporary interruption of pembrolizumab: Thyroiditis", "setting": "[2]", "value": "0 n (%)"},
      {"measurement": "TEAEs resulting in temporary interruption of pembrolizumab", "setting": "[3]", "value": "1 (16.7) n (%)"},
      {"measurement": "Temporary interruption of pembrolizumab: Blood bilirubin increased", "setting": "[3]", "value": "1 (16.7) n (%)"},
      {"measurement": "Temporary interruption of pembrolizumab: Endocrine disorders", "setting": "[3]", "value": "0 n (%)"},
      {"measurement": "Temporary interruption of pembrolizumab: Investigations", "setting": "[3]", "value": "1 (16.7) n (%)"},
      {"measurement": "Temporary interruption of pembrolizumab: Thyroiditis", "setting": "[3]", "value": "0 n (%)"},
      {"measurement": "TEAEs resulting in temporary interruption of pembrolizumab", "setting": "[4]", "value": "1 (14.3) n (%)"},
      {"measurement": "Temporary interruption of pembrolizumab: Blood bilirubin increased", "setting": "[4]", "value": "0 n (%)"},
      {"measurement": "Temporary interruption of pembrolizumab: Endocrine disorders", "setting": "[4]", "value": "0 n (%)"},
      {"measurement": "Temporary interruption of pembrolizumab: Investigations", "setting": "[4]", "value": "1 (14.3) n (%)"},
      {"measurement": "Temporary interruption of pembrolizumab: Thyroiditis", "setting": "[4]", "value": "0 n (%)"},
      {"measurement": "pembrolizumab related TEAEs: Abdominal pain", "setting": "Grade ≥3, N=19", "value": "0 n (%)"},
      {"measurement": "pembrolizumab related TEAEs: Anemia", "setting": "Grade ≥3, N=19", "value": "0 n (%)"},
      {"measurement": "pembrolizumab related TEAEs: Aspartate aminotransferase increase", "setting": "Grade ≥3, N=19", "value": "2 (10.5) n (%)"},
      {"measurement": "pembrolizumab related TEAEs: Blood alkaline phosphatase increased", "setting": "Grade ≥3, N=19", "value": "0 n (%)"},
      {"measurement": "pembrolizumab related TEAEs: Blood and lymphatic system disorders", "setting": "Grade ≥3, N=19", "value": "0 n (%)"},
      {"measurement": "pembrolizumab related TEAEs: Blood bilirubin increased", "setting": "Grade ≥3, N=19", "value": "0 n (%)"},
      {"measurement": "pembrolizumab related TEAEs: Diarrhea", "setting": "Grade ≥3, N=19", "value": "1 (5.3) n (%)"},
      {"measurement": "pembrolizumab related TEAEs: Endocrine disorders", "setting": "Grade ≥3, N=19", "value": "0 n (%)"},
      {"measurement": "pembrolizumab related TEAEs: Gamma-glutamyl transferase increased", "setting": "Grade ≥3, N=19", "value": "0 n (%)"},
      {"measurement": "pembrolizumab related TEAEs: Gastrointestinal disorders", "setting": "Grade ≥3, N=19", "value": "1 (5.3) n (%)"},
      {"measurement": "pembrolizumab related TEAEs: Hyperphosphatemia", "setting": "Grade ≥3, N=19", "value": "0 n (%)"},
      {"measurement": "pembrolizumab related TEAEs: Hypoalbuminemia", "setting": "Grade ≥3, N=19", "value": "0 n (%)"},
      {"measurement": "pembrolizumab related TEAEs: Hypothyroidism", "setting": "Grade ≥3, N=19", "value": "0 n (%)"},
      {"measurement": "pembrolizumab related TEAEs: Investigations", "setting": "Grade ≥3, N=19", "value": "2 (10.5) n (%)"},
      {"measurement": "pembrolizumab related TEAEs: Metabolism and nutrition disorders", "setting": "Grade ≥3, N=19", "value": "0 n (%)"},
      {"measurement": "pembrolizumab related TEAEs: Proteinuria", "setting": "Grade ≥3, N=19", "value": "0 n (%)"},
      {"measurement": "pembrolizumab related TEAEs: Renal and urinary disorder", "setting": "Grade ≥3, N=19", "value": "0 n (%)"},
      {"measurement": "pembrolizumab related TEAEs: Thyroiditis", "setting": "Grade ≥3, N=19", "value": "0 n (%)"},
      {"measurement": "TEAEs resulting in temporary interruption of pembrolizumab", "setting": "Total (N=19)", "value": "3 [15.8%] n (%) and 3 (15.8) n (%)"},
      {"measurement": "Temporary interruption of pembrolizumab: Blood bilirubin increased", "setting": "Total (N=19)", "value": "1 (5.3%) n (%) and 1 (5.3) n (%)"},
      {"measurement": "Temporary interruption of pembrolizumab: Endocrine disorders", "setting": "Total (N=19)", "value": "1 (5.3) n (%)"},
      {"measurement": "Temporary interruption of pembrolizumab: Investigations", "setting": "Total (N=19)", "value": "2 (10.5) n (%)"},
      {"measurement": "Temporary interruption of pembrolizumab: Thyroiditis", "setting": "Total (N=19)", "value": "1 (5.3%) n (%) and 1 (5.3) n (%)"}
    ]}
  ]
}
